Our source for the binding result, Kd and IC50 values is patent US20200172896, “EVOLUTION OF BIOACTIVE SEQUENCE-DEFINED SYNTHETIC POLYMERS USING DNA-TEMPLATED POLYMERIZATION” (President and Fellows of Harvard College, published 2020).

Broadly, the Kd is the free concentration of one partner at which half of the binding sites on the other are occupied at equilibrium, for simple one-to-one binding. A high value points to weaker binding. For orientation: IC50 means the concentration needed to halve the response being measured.

The target of data set [1] is T1, PCSK9 (Homo sapiens, UniProt Q8NBP7;Q8NBP7 Q8NBP7:31-152,Q8NBP7:153-692). The experiment in a line: pulldown; unfunctionalized DNA, no evident binding. The following applies: tags: ACROBiosystems PC9-H5223.
For data set [2], the target named is T1, PCSK9. The data set can be described thus: SPR; 0.9x HBS-EP, salmon sperm DNA 1 mg/ml, 25 C. The following applies: tags: ACROBiosystems PC9-H5223; label: 5' dual biotin-iSp18. Here is the method: (§1) All SPR assays were performed at 25° C. on a Biacore X100 or Biacore T200 (GE Healthcare Life Sciences). Binding kinetics between enzymatically synthesized biotinylated HFNAPs and unlabeled recombinant proteins were measured using single-cycle kinetics with the Biotin CAPture kit (GE Life Sciences) using 0.9×HBS-EP buffer (GE Life Sciences) at a flow rate of 30 μL/min. The injected PCSK9 concentration ranged from 10 to 300 nM for PCSK9-A5 and its variants, or from 2 to 60 nM for PCSK9-Evo5 and its variants. The injected IL-6 concentration ranged from 10 to 300 nM.
(§2) All SPR assays were performed at 25° C. on a Biacore X100 or Biacore T200 (GE Healthcare Life Sciences). […] HBS-EP buffer (GE Life Sciences, BR100188), diluted by MilliQ water to 0.9×, was used as the bulk running buffer. Each experiment consisted of three start-up cycles followed by multiple data collection and blank cycles. […] Afterwards, four ascending concentrations of PCSK9 protein [10, 30, 100, 300 nM protein supplemented with 1 mg/ml salmon sperm DNA (Invitrogen, 15632-011) as nonspecific binding reducer for PCSK9-A5 and its variants; 2, 6, 20, 60 nM protein without salmon sperm DNA for PCSK9-Evo5 and its variants] in 0.9×HBS-EP were injected onto both flow cells in series at 30 μL/min for 150 seconds each, followed by 240 seconds of dissociation. […]
Background: In SPR one partner is held on a chip, and binding of the other changes the refractive index at the surface.

The target in data set [3] is T1, PCSK9. The data set can be described thus: SPR; 0.9x HBS-EP, 25 C, immobilized HFNAP. The following applies: tags: ACROBiosystems PC9-H5223; label: 3' iSp18-dual biotin. Here is the method:
as §1, §2

In data set [4] the target is PCSK9 mature, lacking prodomain (Homo sapiens, UniProt Q8NBP7 Q8NBP7:153-692). The data set can be described thus: SPR; no apparent binding, 2-60 nM protein. The following applies: tags: ACROBiosystems PC9-H5226; label: 3' iSp18-dual biotin. How it is done: All SPR assays were performed at 25° C. on a Biacore X100 or Biacore T200 (GE Healthcare Life Sciences). […] HBS-EP buffer (GE Life Sciences, BR100188), diluted by MilliQ water to 0.9×, was used as the bulk running buffer. Each experiment consisted of three start-up cycles followed by multiple data collection and blank cycles. […] Afterwards, four ascending concentrations of PCSK9 protein [10, 30, 100, 300 nM protein supplemented with 1 mg/ml salmon sperm DNA (Invitrogen, 15632-011) as nonspecific binding reducer for PCSK9-A5 and its variants; 2, 6, 20, 60 nM protein without salmon sperm DNA for PCSK9-Evo5 and its variants] in 0.9×HBS-EP were injected onto both flow cells in series at 30 μL/min for 150 seconds each, followed by 240 seconds of dissociation. Both flow cells were then regenerated with a 3:1 mixture of 8 M guanidinium chloride and 1 M NaOH following manufacturer's instructions. Blank cycles were run similarly except that 0.9×HBS-EP (containing 1 mg/ml salmon sperm DNA when PCSK9-A5 and its variants were assayed) without PCSK9 protein was injected.

Data set [5] has as its target PCSK9 (biotinylated Avi-tagged) (UniProt Q8NBP7;Q8NBP7 Q8NBP7:31-152,Q8NBP7:153-692). The experiment in a line: SPR; immobilized PCSK9, 0.9x HBS-EP, 25 C. The following applies: tags: biotinylated Avi-tag, ACROBiosystems PC9-H82E7.
From the text: Biotinylated PCSK9 in 0.9×HBS buffer was immobilized onto the active flow cell to ˜1000 RU. […] Kinetic parameters were fitted to double-blank-subtracted sensograms under a 1:1 binding model using BIAEvaluation software.
Data set [6] concerns the target T1, PCSK9. The data set can be described thus: inhibition; inhibition of 20 nM PCSK9 binding to immobilized LDLR by SPR; HEPES, NaCl, 0.1 mM CaCl2, pH 7.5. The following applies: tags: ACROBiosystems PC9-H5223.
Method: Binding of PCSK9 on surface-immobilized LDLR in the presence of various competing agents was measured on a Series S SA chip using 10 mM HEPES, 150 mM NaCl, 0.1 mM CaCl₂, 0.005% Tween-20, pH 7.5 as bulk buffer at a flow rate of 10 μL/min. The injected solutions contained 20 nM PCSK9 and various competing agents ranging from 2 to 200 nM.
Binding of PCSK9 on surface-immobilized LDLR in the presence of various competing agents was measured on a Series S SA chip. The bulk running buffer was 10 mM HEPES, 150 mM NaCl, 0.1 mM CaCl₂, 0.005% Tween-20, pH 7.5. […] The surface was regenerated using two consecutive one-minute injections of 50 mM HCl. Blank cycles were run similarly except that running buffer containing 1 mg/ml non-specific binding reducer without protein was injected. Response levels at the end of the injection periods from double-blank-subtracted sensograms were recorded.
The target of data set [7] is T1, PCSK9. The experiment in a line: SPR; 0.9x HBS-EP, 25 C. The following applies: tags: ACROBiosystems PC9-H5223; label: biotin. How it is done: as §1, §2
Data set [8] addresses T1, PCSK9. The data set can be described thus: SPR; two-state reaction kinetic model. The following applies: tags: ACROBiosystems PC9-H5223; label: 3' iSp18-dual biotin. Here is the method: as §1, §2

T1 sequence (Q8NBP7 31-152, chain 1 of 2): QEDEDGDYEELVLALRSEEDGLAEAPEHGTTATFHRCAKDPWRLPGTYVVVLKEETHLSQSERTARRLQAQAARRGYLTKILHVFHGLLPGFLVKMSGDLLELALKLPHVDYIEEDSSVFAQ
T1 sequence (Q8NBP7 153-692, chain 2 of 2): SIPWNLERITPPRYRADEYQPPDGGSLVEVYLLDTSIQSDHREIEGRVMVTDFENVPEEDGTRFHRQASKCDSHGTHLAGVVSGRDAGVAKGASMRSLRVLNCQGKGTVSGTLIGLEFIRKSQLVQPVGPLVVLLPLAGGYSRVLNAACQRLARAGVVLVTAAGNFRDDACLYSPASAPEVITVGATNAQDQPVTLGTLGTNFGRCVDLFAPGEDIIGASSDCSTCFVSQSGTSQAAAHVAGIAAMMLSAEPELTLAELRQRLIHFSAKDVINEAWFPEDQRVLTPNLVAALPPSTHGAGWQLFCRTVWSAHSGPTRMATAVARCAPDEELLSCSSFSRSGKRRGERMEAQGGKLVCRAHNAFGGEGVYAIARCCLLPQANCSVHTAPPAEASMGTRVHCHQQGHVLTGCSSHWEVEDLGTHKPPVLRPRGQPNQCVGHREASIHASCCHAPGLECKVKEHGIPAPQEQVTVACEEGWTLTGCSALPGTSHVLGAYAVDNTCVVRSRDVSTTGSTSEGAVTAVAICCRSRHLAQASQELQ
PCSK9 mature, lacking prodomain, sequence (Q8NBP7 153-692, one chain of several): as the sequence (Q8NBP7 153-692, chain 2 of 2) above
PCSK9 (biotinylated Avi-tagged), sequence (Q8NBP7 31-152, chain 1 of 2): as the sequence (Q8NBP7 31-152, chain 1 of 2) above
PCSK9 (biotinylated Avi-tagged), sequence (Q8NBP7 153-692, chain 2 of 2): as the sequence (Q8NBP7 153-692, chain 2 of 2) above

B1: PCSK9A7-DNA (ssDNA)
DNA: CGAATCAGATTGGACCAGTCTTCCCTATTCCTCTACCGTTTGTTCTCTTACTTTCACCTTCTGGAGTCCAGATGTAGGTAG
With B1, in data set [1], the binding result is “no binding”.

B2: PCSK9A1-DNA (ssDNA)
DNA: CGAATCAGATTGGACCAGCCACTATATTCTCTCTCCTACCGTTTGCCTTTGCATCACCTTCTGGAGTCCAGATGTAGGTAG
As for B2, the binding result in data set [1] was “no binding”.

B3: PCSK9A6-DNA (ssDNA)
DNA: CGAATCAGATTGGACCAGTTTCAACCTCTTCTGCCTTCTCCACGGCTCCTTCTGCGTTGTTCCGAGTCCAGATGTAGGTAG
Turning to B3, in data set [1], the binding result is recorded as “no binding”.

B4: PCSK9A4-DNA (ssDNA)
DNA: CGAATCAGATTGGACCAGCCCCAATGCTTTTCGTTTCTATCACGTCTTTAGCGGTACCTATTCGAGTCCAGATGTAGGTAG
Turning to B4, in data set [1], the binding result is listed as “no binding”.

B5: PCSK9A2-DNA (ssDNA)
DNA: CGAATCAGATTGGACCAGCAACAATGATTCTTCTACCGTTTTTGCCCTCACCTTCTGCGCTGAGAGTCCAGATGTAGGTAG
Take B5: in data set [1], the binding result is “no binding”.

B6: PCSK9A3-DNA (ssDNA)
DNA: CGAATCAGATTGGACCAGTCTCTACAACCTCTTTCATGTCTTTAGCACTACTTATCCTGATCAGAGTCCAGATGTAGGTAG
For B6, the binding result in data set [1] is recorded as “no binding”.

B7: PCSK9-A5 (ssDNA)
DNA: CGAATCAGATTGGACCAGCCACGTTACTGATTCTTCTACCGTTTTTGCCCCCGGCACCTTCTGGAGTCCAGATGTAGGTAG
modifications: HFNAP, C5 side chain on the 5' pyrimidine of each of the 15 codons in the variable region (19-63): CCA cyclopropyl, CGT/CTT/CTG cyclopentyl, TAC imidazole, TGA/TGC primary alcohol, TTC allylamine, TTT phenol, CCC cyclopropyl, CGG/CAC isopentyl
B7 registered a dissociation constant Kd in data set [2] of 98 nM.

B8: PCSK9-Evo5 (ssDNA)
DNA: TGCTACCGTTGTTTACCCTGCCACCTTCTGGAGTCCAGATGTAGGTAG
modifications: HFNAP, C5 side chain on 5' pyrimidine of codons TGC primary alcohol, TAC imidazole, CGT cyclopentyl, TGT phenol, TTA allylamine, CCC cyclopropyl, TGC primary alcohol, CAC isopentyl, CTT cyclopentyl, CTG cyclopentyl
Take B8: in data set [3], the dissociation constant Kd worked out at 3 nM. Besides, the binding result in data set [4] is given as “no binding”.

B9: PCSK9-Evo5-syn (ssDNA)
DNA: TGCTACCGTTGTTTACCCTGCCACCTTCTGGAGTCCAGATGTAGGTAG
modifications: side chains as PCSK9-Evo5, 3' idT
Molecule B9 gave a dissociation constant (Kd) in data set [5] of 6.8 nM. Further, in data set [6], the IC50 is roughly 9 nM.

B10: PCSK9-Evo5 3 side chains (ssDNA)
DNA: TGCTACCGTTGTTTACCCTGCCACCTTCTGGAGTCCAGATGTAGGTAG
modifications: only three side chains: phenol at position 9, isopentyl at position 21, cyclopentyl at position 24 (so in the source); rest unfunctionalized DNA [phenol at 9, isopentyl at 21, cyclopentyl at 24 (positions as printed); all other side chains removed; base sequence unchanged]
In data set [7], B10 had a dissociation constant Kd of 3.7 nM.

B11: PCSK9-Evo5 CAC delta side chain (ssDNA)
DNA: TGCTACCGTTGTTTACCCTGCCACCTTCTGGAGTCCAGATGTAGGTAG
modifications: as PCSK9-Evo5 except CAC unmodified [side chains as PCSK9-Evo5 except CAC codon (nt 22-24) unmodified (isopentyl removed); base sequence unchanged]
Consider B11, for which the dissociation constant Kd in data set [8] was roughly 420 nM.

B12: PCSK9-A5Trunc (ssDNA)
DNA: TTCTACCGTTTTTGCCCCCGGCACCTTCTGGAGTCCAGATGTAGGTAG
modifications: HFNAP side chains as PCSK9-A5
In data set [7], B12 showed a Kd of 68 nM.
